Values of other authors in publication PMC2978668.
Like-named read-outs stand apart in the source and are kept apart here.

How the values were obtained:
[1] = molecular target: fibulin-2 (UniProt P98095)
[2] = molecular target: perlecan domain IV (UniProt P98160)
[3] = molecular target: perlecan domain IV (UniProt P98160); remark: listed apart in the source
[4] = molecular target: fibronectin (UniProt P02751)
[5] = molecular target: agrin (muscle) (UniProt O00468)
[6] = molecular target: α1-laminin (UniProt P25391)
[7] = molecular target: α4-laminin (UniProt Q16363)
[8] = molecular target: perlecan LG (UniProt P98160)
Chain of perlecan LG (P98160 3687-4391): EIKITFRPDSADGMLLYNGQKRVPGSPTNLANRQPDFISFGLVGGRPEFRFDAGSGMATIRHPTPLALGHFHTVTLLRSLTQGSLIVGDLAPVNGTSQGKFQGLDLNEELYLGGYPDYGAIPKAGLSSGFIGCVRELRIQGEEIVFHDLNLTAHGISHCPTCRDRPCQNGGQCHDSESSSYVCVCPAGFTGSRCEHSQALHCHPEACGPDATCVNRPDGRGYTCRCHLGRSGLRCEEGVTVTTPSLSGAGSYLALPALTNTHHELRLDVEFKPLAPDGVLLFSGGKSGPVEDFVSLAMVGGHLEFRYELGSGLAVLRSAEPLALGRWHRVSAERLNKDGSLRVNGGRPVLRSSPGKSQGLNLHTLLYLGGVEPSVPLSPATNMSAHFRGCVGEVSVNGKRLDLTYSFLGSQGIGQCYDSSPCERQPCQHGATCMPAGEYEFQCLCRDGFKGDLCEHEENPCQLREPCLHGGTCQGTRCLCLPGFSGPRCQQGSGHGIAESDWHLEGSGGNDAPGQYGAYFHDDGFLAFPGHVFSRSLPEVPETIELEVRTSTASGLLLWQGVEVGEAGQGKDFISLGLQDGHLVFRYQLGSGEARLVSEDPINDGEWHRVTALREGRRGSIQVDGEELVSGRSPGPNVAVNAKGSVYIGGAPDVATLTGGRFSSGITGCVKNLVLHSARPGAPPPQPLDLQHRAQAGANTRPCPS

[9] = molecular target: α2-laminin (UniProt P24043)
[10] = molecular target: α5-laminin (UniProt O15230)

Chain of α-dystroglycan (Q14118 30-653): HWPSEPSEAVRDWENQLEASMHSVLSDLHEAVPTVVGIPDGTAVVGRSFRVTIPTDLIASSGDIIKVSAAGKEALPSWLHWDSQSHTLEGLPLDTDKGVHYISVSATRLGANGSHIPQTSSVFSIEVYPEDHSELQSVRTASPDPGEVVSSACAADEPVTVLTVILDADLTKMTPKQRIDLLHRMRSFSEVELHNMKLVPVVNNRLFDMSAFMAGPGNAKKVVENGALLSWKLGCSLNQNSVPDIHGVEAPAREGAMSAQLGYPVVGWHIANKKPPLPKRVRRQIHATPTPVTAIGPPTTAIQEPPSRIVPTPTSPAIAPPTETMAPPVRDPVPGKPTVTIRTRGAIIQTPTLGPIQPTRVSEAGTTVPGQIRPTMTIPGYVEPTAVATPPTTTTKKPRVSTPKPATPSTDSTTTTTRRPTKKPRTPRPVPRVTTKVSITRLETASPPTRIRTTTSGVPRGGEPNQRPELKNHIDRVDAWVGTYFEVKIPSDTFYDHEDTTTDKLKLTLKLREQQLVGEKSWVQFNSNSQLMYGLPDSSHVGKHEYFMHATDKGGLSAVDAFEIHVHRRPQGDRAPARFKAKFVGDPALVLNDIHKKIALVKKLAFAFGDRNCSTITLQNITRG
Chain of perlecan domain IV (UniProt P98160) (P98160 1677-3686): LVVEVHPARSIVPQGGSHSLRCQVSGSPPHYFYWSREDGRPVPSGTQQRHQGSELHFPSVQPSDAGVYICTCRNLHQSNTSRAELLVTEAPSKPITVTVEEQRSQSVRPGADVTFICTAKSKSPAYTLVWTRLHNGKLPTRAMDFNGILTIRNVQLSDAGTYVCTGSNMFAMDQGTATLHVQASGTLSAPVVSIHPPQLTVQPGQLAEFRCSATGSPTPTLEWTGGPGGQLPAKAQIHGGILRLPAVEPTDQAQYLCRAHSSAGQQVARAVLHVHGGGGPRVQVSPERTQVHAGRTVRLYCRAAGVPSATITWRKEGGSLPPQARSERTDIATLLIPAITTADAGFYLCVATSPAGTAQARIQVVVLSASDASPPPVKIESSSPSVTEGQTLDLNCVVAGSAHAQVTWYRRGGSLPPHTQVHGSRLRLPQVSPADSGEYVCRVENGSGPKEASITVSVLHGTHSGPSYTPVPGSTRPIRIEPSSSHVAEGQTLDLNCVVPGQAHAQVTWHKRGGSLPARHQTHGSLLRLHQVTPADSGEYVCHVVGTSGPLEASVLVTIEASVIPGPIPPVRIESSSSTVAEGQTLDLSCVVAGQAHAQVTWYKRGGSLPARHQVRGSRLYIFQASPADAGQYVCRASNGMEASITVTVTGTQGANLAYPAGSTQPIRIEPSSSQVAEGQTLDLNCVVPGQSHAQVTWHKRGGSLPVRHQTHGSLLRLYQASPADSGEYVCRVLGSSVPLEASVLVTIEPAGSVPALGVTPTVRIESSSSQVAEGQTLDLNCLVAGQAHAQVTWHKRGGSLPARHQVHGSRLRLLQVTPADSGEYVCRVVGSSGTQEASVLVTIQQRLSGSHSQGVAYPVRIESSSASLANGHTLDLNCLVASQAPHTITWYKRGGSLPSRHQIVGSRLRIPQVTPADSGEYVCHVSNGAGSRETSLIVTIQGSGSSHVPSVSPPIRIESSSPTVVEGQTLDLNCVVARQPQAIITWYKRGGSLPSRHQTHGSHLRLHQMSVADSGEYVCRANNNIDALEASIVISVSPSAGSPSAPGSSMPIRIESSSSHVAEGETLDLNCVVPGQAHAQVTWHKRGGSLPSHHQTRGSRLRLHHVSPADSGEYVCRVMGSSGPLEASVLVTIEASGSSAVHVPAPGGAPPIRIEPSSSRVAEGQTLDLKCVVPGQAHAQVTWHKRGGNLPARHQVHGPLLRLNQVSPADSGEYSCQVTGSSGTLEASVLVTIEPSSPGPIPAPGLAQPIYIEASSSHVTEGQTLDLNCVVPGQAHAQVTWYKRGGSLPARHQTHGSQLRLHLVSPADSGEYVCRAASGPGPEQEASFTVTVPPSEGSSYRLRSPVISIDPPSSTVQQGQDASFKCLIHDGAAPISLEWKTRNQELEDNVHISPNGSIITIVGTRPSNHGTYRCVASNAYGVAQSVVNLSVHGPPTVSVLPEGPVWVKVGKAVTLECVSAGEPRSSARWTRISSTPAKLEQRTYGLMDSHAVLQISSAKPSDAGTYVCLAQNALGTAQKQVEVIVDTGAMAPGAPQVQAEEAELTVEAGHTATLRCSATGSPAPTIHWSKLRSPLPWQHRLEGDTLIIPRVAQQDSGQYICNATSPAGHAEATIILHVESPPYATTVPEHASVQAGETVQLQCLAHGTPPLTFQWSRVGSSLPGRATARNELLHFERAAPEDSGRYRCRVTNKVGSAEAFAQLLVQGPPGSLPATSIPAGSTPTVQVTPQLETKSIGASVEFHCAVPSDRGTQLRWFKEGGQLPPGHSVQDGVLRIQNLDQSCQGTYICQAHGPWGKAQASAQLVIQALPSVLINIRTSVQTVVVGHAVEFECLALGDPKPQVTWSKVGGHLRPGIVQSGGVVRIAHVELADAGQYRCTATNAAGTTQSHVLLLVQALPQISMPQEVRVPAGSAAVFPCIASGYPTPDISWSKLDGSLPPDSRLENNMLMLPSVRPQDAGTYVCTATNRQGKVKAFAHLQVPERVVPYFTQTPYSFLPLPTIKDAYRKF
Chain of nidogen-2 (Q14112 31-1375): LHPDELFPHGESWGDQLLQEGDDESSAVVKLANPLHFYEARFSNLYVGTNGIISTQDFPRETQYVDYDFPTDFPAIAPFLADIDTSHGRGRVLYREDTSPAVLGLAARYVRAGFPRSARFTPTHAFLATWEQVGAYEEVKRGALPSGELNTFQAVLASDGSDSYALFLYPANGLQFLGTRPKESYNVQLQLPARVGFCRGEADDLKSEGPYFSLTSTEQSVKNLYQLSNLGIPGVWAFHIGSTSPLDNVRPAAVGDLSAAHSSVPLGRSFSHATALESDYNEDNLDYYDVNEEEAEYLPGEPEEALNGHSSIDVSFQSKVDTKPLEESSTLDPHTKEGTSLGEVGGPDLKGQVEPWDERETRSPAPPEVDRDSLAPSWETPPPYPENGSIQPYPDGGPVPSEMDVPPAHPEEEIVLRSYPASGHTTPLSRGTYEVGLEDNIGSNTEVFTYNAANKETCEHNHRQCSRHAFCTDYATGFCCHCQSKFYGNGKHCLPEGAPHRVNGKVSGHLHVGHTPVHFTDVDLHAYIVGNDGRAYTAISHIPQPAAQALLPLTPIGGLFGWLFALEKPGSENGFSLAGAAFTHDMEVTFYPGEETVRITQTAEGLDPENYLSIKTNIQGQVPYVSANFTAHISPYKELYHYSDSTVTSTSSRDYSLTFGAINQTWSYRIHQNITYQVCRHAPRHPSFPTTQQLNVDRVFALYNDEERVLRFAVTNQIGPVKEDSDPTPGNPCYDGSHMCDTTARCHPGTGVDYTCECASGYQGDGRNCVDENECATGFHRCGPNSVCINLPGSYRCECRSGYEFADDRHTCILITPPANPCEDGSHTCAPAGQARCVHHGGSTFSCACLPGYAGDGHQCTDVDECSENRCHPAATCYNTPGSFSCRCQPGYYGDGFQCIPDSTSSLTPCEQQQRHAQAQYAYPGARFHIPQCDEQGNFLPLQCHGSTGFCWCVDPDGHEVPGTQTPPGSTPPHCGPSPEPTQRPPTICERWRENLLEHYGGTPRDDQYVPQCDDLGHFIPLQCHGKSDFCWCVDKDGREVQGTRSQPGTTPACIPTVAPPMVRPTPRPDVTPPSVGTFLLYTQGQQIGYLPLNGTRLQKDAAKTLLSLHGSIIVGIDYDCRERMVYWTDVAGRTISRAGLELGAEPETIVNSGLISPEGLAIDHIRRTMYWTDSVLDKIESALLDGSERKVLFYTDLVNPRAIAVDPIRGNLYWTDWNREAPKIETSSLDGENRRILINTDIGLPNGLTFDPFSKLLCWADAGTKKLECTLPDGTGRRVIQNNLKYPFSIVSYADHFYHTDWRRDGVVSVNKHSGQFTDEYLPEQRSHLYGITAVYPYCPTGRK
Chain of perlecan domain IV (from UniProt P98160) (P98160 1677-3686): as the sequence (P98160 1677-3686) above
Chain of nidogen-1 G2 (P14543 430-667): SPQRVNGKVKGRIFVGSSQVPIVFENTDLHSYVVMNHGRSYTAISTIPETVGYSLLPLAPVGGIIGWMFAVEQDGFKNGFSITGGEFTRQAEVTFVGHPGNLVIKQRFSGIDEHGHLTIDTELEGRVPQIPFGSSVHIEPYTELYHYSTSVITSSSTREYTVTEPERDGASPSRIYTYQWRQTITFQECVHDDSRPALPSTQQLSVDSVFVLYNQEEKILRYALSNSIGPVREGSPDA

With nidogen (from UniProt P14543) as the substance, how does the Kd [1] read?
The Kd was less than 0.5 nM.

Which Kd [2] does the source give for nidogen-1 G2 (from UniProt P14543) here?
Its Kd is 10 nM.

With nidogen-2 (from UniProt Q14112) as the substance, how does the Kd [3] read?
The Kd was 10 nM.

Which Kd [4] does the source give for “perlecan domain IV (from UniProt P98160)” here?
The Kd was 10 nM.

Which Kd [5] does the source give for α-dystroglycan (from UniProt Q14118) here?
Its Kd is 2 nM.

And the Kd [6]?
The Kd was 20 nM.

What about the Kd [7] of the same substance?
The Kd was greater than 1000 nM.

What about the Kd [8] of the same substance?
Its Kd is 16 nM.

What about the Kd [9] of the same substance?
The Kd was 43 nM.

What about the Kd [10] of the same substance?
Its Kd is 150 nM.
